Source: US20130252987A1, “METHOD OF REGULATING PLASMA LIPOPROTEINS” (MCMASTER UNIVERSITY, priority 2010, published 2013)

Assays:
[1] = test system: primary mouse hepatocytes from wildtype littermates; assay: LDL receptor and PCSK9 protein in wild-type mouse hepatocytes; format: cell-based; conditions: wild-type mice hepatocytes, 50 ng/mL, 24 hours
Description: Animal ethics approval was received for the mouse protocols to follow. Primary mouse hepatocytes from PCSK9 knockout mice (C57Bl/6 background) or their wildtype littermates were isolated by perfusing the liver via the hepatic portal vein with a 5 mM EGTA in Leffert's Buffer (10 mM Hepes; 3 mM KCl, 0.13 M NaCl, 1 mM NaH2PO4, 10 mM D-glucose) followed by a 0.3 mg/ml collagenase in 0.0279% CaCl2. Cells were then filtered through a 70 uM nylon strainer and centrifuged at 760 rpm for 5 min. The cells were then passed through a CHRM gradient (Invitrogen, NC). Viability of cells ranged from 80 to 95%. […] Mouse LDL receptor and PCSK9 protein in cell lysates were measured via immunoblotting, as described above, using the following primary antibodies: mouse LDL receptor (abcam, MA), mouse PCSK9 (abcam, MA) and mouse GAPDH (Cell Signaling, MA). […]
To then more directly quantify the role of PCSK9 in the resistin mediated reduction in hepatocyte LDL receptor levels, hepatocytes isolated and cultured from wild-type mice were treated with resistin, and compared to resistin-treated hepatocytes from PCSK9 knockout mice.

HepG2 cells [2] = assay: gas chromatography of hepatocyte lipids; format: cell-based, human; conditions: 50 ng/mL, 24 hours
Description: Lipids from HepG2 cell extracts were quantified by gas chromatography (GC) as described in Sahoo et al. (J. Lipid Res. 45:1122-1131). Briefly, cell extracts were incubated with phospholipase C (Sigma, ON) to remove polar head groups, then extracted in the presence of internal standard by the method of Folch et al. (J Biol Chem 226:497-509). Extracted lipids were passed through a sodium sulfate column to remove aqueous contaminants, and derivatized with Sylon BFT (Supelco, ON) to cap reactive hydroxyl and carboxyl groups. Derivatized lipids were dissolved in hexane and injected onto a Zebron ZB-5 column (Phenomenex, Torrance, Calif.) in an Agilent 6890 GC instrument. Lipoprotein Profiles. HepG2 media from 6-10 cm plates was collected and concentrated using an Amicon Centriprep concentrator 50 K and lipoprotein classes separated by fast protein liquid chromatography (FPLC) on a Superose 6 10/30 gel filtration column (Amersham, UK) followed by inline post-column reaction with either Infinity Triglyceride or Infinity Cholesterol reagent (Thermo Scientific, West Palm Beach, Fla.) and measurement of absorbance @ 500 nm.
To quantify the hepatocyte lipid changes induced by human resistin, gas chromatography (GC) analyses of lipids extracted from harvested hepatocytes either untreated or treated with human resistin (50 ng/mL) for 24 hours was performed.

HepG2 cells [3] = assay: Oil-Red-O staining of neutral lipid; format: cell-based, human; conditions: 50 ng/mL, 24 hours, versus untreated
Description: Cells were stained with Oil-Red-0 to examine the amount of neutral lipid accumulation in the cells as described by Ferre et al. (Am. J. Physiol Gastrointest. Liver Physiol. 296:G553-G562). Briefly, dishes were washed with cold phosphate-buffered saline and fixed in 10% neutral formalin. After 2 changes of propylene glycol, Oil-Red-0 was added with agitation for 7 minutes, followed by washing in 85% propylene glycol. The dishes were then rinsed in distilled water and counterstained with hematoxylin. For each dish, 3 images were photographed, and a representative image is shown.
To determine if the deleterious effects of human resistin extend not only to increased secretion of apoB-containing lipoproteins by human hepatocytes, but also to increased hepatocyte lipid content, as the two processes frequently occur together in such conditions as obesity, insulin resistance and type 2 diabetes mellitus. Oil-Red-O/hematoxylin staining of HepG2 cells either untreated, treated with 100 μM oleate for 24 hours as a positive control, or treated with 50 ng/mL human resistin for 24 hours was performed. […] The increased cell neutral lipid content with resistin treatment was similar in magnitude to that observed with 100 μM oleate treatment.

[4] = test system: microsomal triglyceride transfer protein (MTP); assay: MTP protein expression and activity assay; format: cell-based, human; conditions: 50 ng/mL, 24 hours, HepG2 cells
Description: Cell monolayers were washed twice with ice-cold PBS and once with 5 ml of 1 mM Tris-HCl, pH 7.6, 1 mM EGTA, and 1 mM MgCl2 at 4° C. Cells were then incubated for 2 min at room temperature in 5 ml of ice-cold 1 mM Tris-HCl, pH 7.6, 1 mM EGTA, and 1 mM MgCl2. The buffer was aspirated, and 0.5 ml of the same buffer was added to cells. Cells were scraped and collected in ice-cold tubes, vortexed, and centrifuged (SW55 Ti rotor, 50,000 rpm, 10° C., 1 h), and supernatants were used for MTP assay using the MTP fluorometric activity assay kit (Chylos Inc., NY). The triglyceride transfer activity of MTP is presented as % transfer/h/mg protein.
Further tests were conducted to investigate mechanisms by which human resistin stimulated increased hepatocyte expression and secretion of apoB protein. […] It was first determined whether human resistin inhibits apoB degradation through the classic proteosome-dependent degradation pathway by adding the optimal dose of human resistin (50 ng/mL) to the proteosome-dependent inhibitor of apoB degradation, lactacystin, at the optimal dose and time (10 μM, 24 hours). An increase in the cellular expression and secretion of apoB in HepG2 cells with lactacystin was observed, confirming its apoB degradation properties (FIG. 8A.). […]

B1: human resistin: recombinant lyophilized purified human resistin (Calbiochem); cysteine-rich cytokine, single 12 kDa band (protein)
chain: KTLCSMEEAINERIQEVAGSLIFRAISSIGLECQSVTSRGDLATCPRGFAVTGCTCGSACGSWDVRAETTCHCQCAGMDWTGARCCRVQP
With B1 the PCSK9 levels [1] was “increased PCSK9 levels significantly”, the “decrease in LDL receptor protein levels compared with untreated hepatocytes” value [1] was 40% and the “increase in cholesteryl ester content” value (HepG2 cells [2]) was 18%. For the same molecule, the “increase in free cholesterol content” value (HepG2 cells [2]) was 3%, the “increase in triglyceride content” value (HepG2 cells [2]) was 24% and the “hepatocyte neutral lipid content” value (HepG2 cells [3]) was “clear increase”. For the same molecule, the MTP activity [4] was “significant increases” and the “cellular MTP protein expression” value [4] was “significant increases”.
